{"source": "patent US10736923B2", "about": "“Methods and compositions for generating chondrocyte lineage cells and/or cartilage like tissue” (UNIVERSITY HEALTH NETWORK, priority 2013, dated 2020)", "assay_type_in_all_cases": "cell-based, human", "key": {"hiPSCs": {"tested_on": "hiPSCs", "test": "Induction of primitive streak-like mesoderm from hiPSCs, flow cytometry", "conditions": "hIPSCs induced with Activin A 3 ng/ml, BMP4 1 ng/ml, basic FGF 5 ng/ml and CHIR99061 1 micromolar, day 1 to day 3", "source_text": "FIG. 1. Serum-free differentiation of paraxial mesoderm, chondrocyte progenitors, and cartilage tissues from human pluripotent stem cells (hPSCs). […] On day 4 (T4), mesoderm populations are monitored by the expression of CD56 and PDGFRa on the cell surface by flow cytometry (B). Day 4 mesoderm cells are specified to a paraxial mesoderm fate in monolayer culture by treatment of Dorsomorphin, a BMP inhibitor, a TGFbeta inhibitor SB431542, and bFGF, from days 4 to 6 and bFGF from days 4 to 15 (stage 2). Day 15 paraxial mesoderm cells can generate chondrocyte progenitors by plating in a high density ‘spot’ termed micromass, or by plating onto collagen coated membrane filters (not shown) in the presence of TGFB3 for approximately 10 days (stage 3). Chondrocyte progenitors can be specified to articular chondrocytes or growth plate-like chondrocytes in a cartilage tissue format during stage 4 of differentiation by extended stimulation with TGFB3 (articular) or […] (growth plate-like) for example for 12 weeks. Tissues have been kept in culture for at least 7 months."}, "[1]": {"tested_on": "hPSC-derived chondrocytes", "test": "CD73 flow cytometry of hPSC-derived cartilage tissues", "conditions": "hPSC-derived cartilage tissues after 11 weeks", "source_text": "(§1) FIG. 6. CD73 is expressed by articular chondrocytes. Flow cytometric analyses of primary chondrocytes (A) Healthy adult articular chondrocytes and iliac crest GPC-like chondrocytes, (B) Primary fetal chondrocytes, primary (C) or passaged (passage (P)2, D) fetal chondrocytes after 9 to 10 weeks of micromass culture in the presence of TGFB3 or BMP4, and (E) hPSC-derived chondrocytes after 11 weeks derived in the presence of TGFB3 or BMP4. (F) Time course of CD73 and PDGFR-beta cells surface expression on T12 and T15 paraxial mesoderm populations, and micromass cultures treated with TGFB3 after 3 days, 10 days, and 2 weeks. (G) Time course of CD73 expression on TGFB3-treated micromasses after 3 days, 7 days, 10 days, and 2 to 5 weeks.\nPrimary (P0) and passaged (P2) fetal chondrocytes can also be cultured in micromass with TGFB3 or BMP4, similar to how hPSC-derived cartilage tissues are formed. TGFB3-treated fetal P0-derived or fetal P2-derived cartilage tissues contain over 93% CD73 positive cells, while BMP4 treatment reduces the percentage of CD73+ cells to 70% and 61% respectively (FIG. 6C,D). CD73 expression is also expressed by over 98% of hPSC-derived cartilage tissues derived with TGFB3-treatment (FIG. 6E). The percentage of CD73+ cells is reduced to only about 57% of cells after BMP4-treatment. […]"}, "[2]": {"tested_on": "hPSC-derived paraxial mesoderm", "test": "Chondrocyte specification in micromass culture with TGFB3 or BMP4 (histology, scatter flow cytometry, qRT-PCR, immunostaining)", "source_text": "FIG. 4. TGFB3 and BMP4 specify chondrocytes and cartilage-like tissues with articular cartilage and growth plate cartilage phenotypes. (A) Micrographs of 5 week old micromasses derived with TGFB3 or BMP4, 20× magnification. (B) Tissue histology (stained with toluidine blue) of 13 week cartilage tissues derived with TGFB3 or BMP4. […] (C) Flow cytometric analysis of forward and side cell scatter parameters of 3 week and 5 week old micromasses. Side scatter indicates cell granularity and forward cell scatter indicates cell size. (D) Comparison of hPSC-derived micromass tissues to fetal primary chondrocyte derived micromass tissues and the developing human fetal femur cartilage. Articular cartilage regions appear to have smaller cells in size compared to growth plate like regions, which contain cells which appear enlarged (hypertrophic). Cartilage tissues in micromass as well as in the fetal femur stain uniformly with the toluidine blue stain (images are pink/purple in color and indicate the presence of cartilage proteins). The BMP4-treated micromass tissues contain a large number of enlarged cells which is similar to the bottom panel of the fetal cartilage which represents a growth plate cartilage. TGFB3 treated micromass cultures contain fewer, if any, enlarged chondrocytes, and appear similar to the upper panel of the fetal cartilage which is the site of articular cartilage. (E) Micrograph using GDF5 instead of BMP4 to generate hypertrophic chondrocytes. (F) Histological analyses of cartilage tissues derived from hiPSCs stained with Toluidine blue after 12 weeks. (G,H) Immunohistochemical staining of hESC-derived cartilage tissues for type II Collagen (G, 8 week tissues), and lubricin (H, 12 week tissues).\nFIG. 5. Gene expression analyses of chondrocyte specification in the presence of TGFB3 or BMP4 during stages 3 and 4 of differentiation respectively. General chondrocyte genes Sox9 (A) and collagen 2 (B), hypertrophic genes collagen 10 (C), Runx2 (D), osterix (E) and alkaline phosphatase (F), articular cartilage associated genes lubricin (G) and cartilage intermediate layer protein 2 (CILP2) (H), interzone-related (joint progenitor) genes GDF5 (I), ERG (J) and Wnt9a (K). Expression is copy number relative to TBP (n=3 to 8 biological replicates) and is compared to primary fetal chondrocytes (aged 16 to 19 weeks, n=4), primary healthy adult articular chondrocytes (n=2), and growth plate-like chondrocytes isolated from the iliac crest of an adult (n=1). T15 Mesoderm indicates day 15 hESC-derived paraxial mesoderm (DM+FGF-treated). Error bars indicate s.e.m.\nFIG. 8. TGFβ1, TGFβ2, and TGFβ3 generated articular chondrocytes from hPSC-derived paraxial mesoderm. COL2A1, lubricin, and CILP2 gene expression after 12 weeks of micromass culture in the presence of TGF agonists as indicated (10 ng/ml). Values represent copy number mRNA relative to TBP. Error bars indicate s.e.m.\nPrevious studies have shown that TGFBeta/BMP signaling is required to generate chondrocyte progenitors from paraxial mesoderm. […] Following 10 days of TGFb3 treatment (day 25 total), cultures could be switched to media containing BMP4 or maintained in TGFb3 (stage 4) in order to specify subsets of chondrocytes (articular/non-hypertrophic or growth plate/hypertrophic). To determine the chondrocyte potential of the day 15 mesoderm populations, the cells were plated at high cell density in a 20 microliter volume on tissue culture treated Petri dishes for an hour (micromass) and then the ‘spot’ was submerged/covered with media. In our initial studies, the cells were ‘spotted’ in a media containing 2% fetal bovine serum. However, this short serum exposure can be omitted with no effects on cartilage formation at later stages, making this protocol optionally serum-free. After 2 to 3 days, serum-free media containing TGFb3 is added to the culture to generate chondrocyte progenitors. […]"}, "fetal chondrocytes": {"tested_on": "fetal chondrocytes", "test": "CD73 flow cytometry of fetal chondrocytes in micromass culture", "conditions": "9 to 10 weeks of micromass culture", "source_text": "as §1\nPrimary (P0) and passaged (P2) fetal chondrocytes can also be cultured in micromass with TGFB3 or BMP4, similar to how hPSC-derived cartilage tissues are formed. TGFB3-treated fetal P0-derived or fetal P2-derived cartilage tissues contain over 93% CD73 positive cells, while BMP4 treatment reduces the percentage of CD73+ cells to 70% and 61% respectively (FIG. 6C,D). CD73 expression is also expressed by over 98% of hPSC-derived cartilage tissues derived with TGFB3-treatment (FIG. 6E). The percentage of CD73+ cells is reduced to only about 57% of cells after BMP4-treatment. Thus, CD73 marks primary healthy adult ACs, a proportion of healthy fetal chondrocytes, fetal chondrocytes or passaged fetal chondrocytes cultured as micromasses in TGFB3, and TGFB3-treated articular chondrocyte-like cells derived from human PSCs."}}}
{"molecule": "Cc1cnc(-c2cnc(NCCNc3ccc(C#N)cn3)nc2-c2ccc(Cl)cc2Cl)[nH]1", "note": "[CHIR99061]", "values": [{"measurement": "expression of cell surface markers CD56, PDGFRalpha and KDR", "setting": "hiPSCs", "value": "also expresses CD56, PDGFRalpha and KDR"}]}
{"molecule": "TGFB3: TGFbeta agonist (protein, UniProt P10600 301-412, looked up) Transforming growth factor …: ALDTNYCFRNLEENCCVRPLYIDFRQDLGWKWVHEPKGYYANFCSGPCPYLRSADTTHSTVLGLYNTLNPEASASPCCVPQDLEPLTILYYVGRTPKVEQLSNMVVKSCKCS", "values": [{"measurement": "CD73 positive cells", "setting": "[1]", "value": "over 98%"}, {"measurement": "forward and side scatter of live cells (cell size, granularity)", "setting": "[2]; 3 week and 5 week micromasses", "value": "tight population of smaller, less granular cells"}, {"measurement": "chondrocyte morphology", "setting": "[2]; 5 week old micromasses", "value": "small fibroblastic-like phenotype"}, {"measurement": "Lubricin protein (immunohistochemistry)", "setting": "[2]; 12 week micromass tissue", "value": "present"}, {"measurement": "tissue histology (toluidine blue), chondrocyte size", "setting": "[2]; 13 week old tissues, GDF5 instead of BMP4", "value": "small cells (chondrocytes) dispersed evenly throughout the tissue"}, {"measurement": "expression of mature AC genes, such as lubricin and CILP2", "setting": "[2]; extended period of time (up to 12 weeks)", "value": "allows for the expression of mature AC genes"}, {"measurement": "COL2A1 expression", "setting": "[2]; qRT-PCR, by 2 weeks of culture", "value": "upregulated"}, {"measurement": "SOX9 expression", "setting": "[2]; qRT-PCR, by 2 weeks of culture", "value": "upregulated"}, {"measurement": "CD73 positive cells", "setting": "fetal chondrocytes; passaged (P2) fetal chondrocytes", "value": "over 93%"}, {"measurement": "CD73 positive cells", "setting": "fetal chondrocytes; primary (P0) fetal chondrocytes", "value": "over 93%"}]}
